Patent US20120208237A1 (Novo Nordisk, published 2012)

Legend:
[1] = target: recombinant soluble KIR2DL1 (entire extracellular domain, produced in E. coli) (human) (UniProt P43626); experiment: Biacore competition, KIR2DL1 chip; competitor (second Ab) 1-4F1
[2] = target: recombinant soluble KIR2DL1 (entire extracellular domain, produced in E. coli) (human) (UniProt P43626); experiment: Biacore competition, KIR2DL1 chip; competitor (second Ab) 1-6F1
[3] = target: recombinant soluble KIR2DL1 (entire extracellular domain, produced in E. coli) (human) (UniProt P43626); experiment: Biacore competition, KIR2DL1 chip; competitor (second Ab) DF200
[4] = target: recombinant soluble KIR2DL1 (entire extracellular domain, produced in E. coli) (human) (UniProt P43626); experiment: Biacore competition, KIR2DL1 chip; competitor (second Ab) Pan2D
[5] = target: recombinant soluble KIR2DL1 (entire extracellular domain, produced in E. coli) (human) (UniProt P43626); experiment: Biacore competition, KIR2DL1 chip; competitor (second Ab) 1-7F9
[6] = target: recombinant soluble KIR2DL1 (entire extracellular domain, produced in E. coli) (human) (UniProt P43626); experiment: Biacore, KIR2DL1 chip; first Ab 1-7F9 bound
[7] = target: recombinant soluble KIR2DL1 (entire extracellular domain, produced in E. coli) (human) (UniProt P43626); experiment: Biacore, KIR2DL1 chip; direct binding (field of first Ab 1-6F1)
[8] = target: recombinant soluble KIR2DL1 (entire extracellular domain, produced in E. coli) (human) (UniProt P43626); experiment: Biacore, KIR2DL1 chip; first Ab 1-6F1 bound
[9] = target: recombinant soluble KIR2DL1 (entire extracellular domain, produced in E. coli) (human) (UniProt P43626); experiment: Biacore, KIR2DL1 chip; first Ab EB6 bound
[10] = target: recombinant soluble KIR2DL1 (entire extracellular domain, produced in E. coli) (human) (UniProt P43626); experiment: Biacore competition, KIR2DL1 chip; competitor (second Ab) EB6 (self)
[11] = target: recombinant soluble KIR2DL1 (entire extracellular domain, produced in E. coli) (human) (UniProt P43626); experiment: Biacore, KIR2DL1 chip; direct binding (field of first Ab 1-7F9)
[12] = target: recombinant soluble KIR2DL1 (entire extracellular domain, produced in E. coli) (human) (UniProt P43626); experiment: Biacore, KIR2DL1 chip; direct binding (field of first Ab EB6)
[13] = target: recombinant soluble KIR2DL3 (entire extracellular domain, produced in E. coli) (human) (UniProt P43628); experiment: Biacore, KIR2DL3 chip; first Ab 1-4F1 bound
[14] = target: recombinant soluble KIR2DL3 (entire extracellular domain, produced in E. coli) (human) (UniProt P43628); experiment: Biacore competition, KIR2DL3 chip; competitor (second Ab) 1-4F1
[15] = target: recombinant soluble KIR2DL3 (entire extracellular domain, produced in E. coli) (human) (UniProt P43628); experiment: Biacore, KIR2DL3 chip; first Ab 1-6F1 bound
[16] = target: recombinant soluble KIR2DL3 (entire extracellular domain, produced in E. coli) (human) (UniProt P43628); experiment: Biacore, KIR2DL3 chip; first Ab 1-7F9 bound
[17] = target: recombinant soluble KIR2DL3 (entire extracellular domain, produced in E. coli) (human) (UniProt P43628); experiment: Biacore competition, KIR2DL3 chip; competitor (second Ab) 1-6F1
[18] = target: recombinant soluble KIR2DL3 (entire extracellular domain, produced in E. coli) (human) (UniProt P43628); experiment: Biacore competition, KIR2DL3 chip; competitor (second Ab) 1-7F9
[19] = target: recombinant soluble KIR2DL3 (entire extracellular domain, produced in E. coli) (human) (UniProt P43628); experiment: Biacore competition, KIR2DL3 chip; competitor (second Ab) Pan2D
[20] = target: recombinant soluble KIR2DL3 (entire extracellular domain, produced in E. coli) (human) (UniProt P43628); experiment: Biacore competition, KIR2DL3 chip; competitor (second Ab) DF200
[21] = target: recombinant soluble KIR2DL3 (entire extracellular domain, produced in E. coli) (human) (UniProt P43628); experiment: Biacore, KIR2DL3 chip; direct binding (field of first Ab 1-4F1)
[22] = target: recombinant soluble KIR2DL3 (entire extracellular domain, produced in E. coli) (human) (UniProt P43628); experiment: Biacore, KIR2DL3 chip; direct binding (field of first Ab 1-7F9)
[23] = target: recombinant soluble KIR2DL3 (entire extracellular domain, produced in E. coli) (human) (UniProt P43628); experiment: Biacore, KIR2DL3 chip; direct binding (field of first Ab 1-6F1)
[24] = target: recombinant soluble KIR2DL1 (entire extracellular domain, produced in E. coli) (human) (UniProt P43626); experiment: Biacore competition (Example 10), KIR2DL1 chip; competitor (second Ab) DF200 (self)
[25] = target: recombinant soluble KIR2DL3 (entire extracellular domain, produced in E. coli) (human) (UniProt P43628); experiment: Biacore, KIR2DL3 chip; direct binding (field of first Ab 1-6F5)
[26] = target: recombinant soluble KIR2DL3 (entire extracellular domain, produced in E. coli) (human) (UniProt P43628); experiment: Biacore competition (Example 10), KIR2DL3 chip; competitor (second Ab) 1-7F9
[27] = target: recombinant soluble KIR2DL1 (entire extracellular domain, produced in E. coli) (human) (UniProt P43626); experiment: Biacore competition, KIR2DL1 chip; competitor (second Ab) 1-6F5
[28] = target: recombinant soluble KIR2DL1 (entire extracellular domain, produced in E. coli) (human) (UniProt P43626); experiment: Biacore, KIR2DL1 chip; first Ab 1-6F5 bound
[29] = target: recombinant soluble KIR2DL1 (entire extracellular domain, produced in E. coli) (human) (UniProt P43626); experiment: Biacore competition (Example 10), KIR2DL1 chip; competitor (second Ab) 1-7F9
[30] = target: immobilized KIR2DS1 protein (human) (UniProt Q14954); experiment: Biacore competition, KIR2DS1 chip; competitor (second Ab) Pan2D
Sequence of immobilized KIR2DS1 protein (human) (Q14954 22-245 limits assumed): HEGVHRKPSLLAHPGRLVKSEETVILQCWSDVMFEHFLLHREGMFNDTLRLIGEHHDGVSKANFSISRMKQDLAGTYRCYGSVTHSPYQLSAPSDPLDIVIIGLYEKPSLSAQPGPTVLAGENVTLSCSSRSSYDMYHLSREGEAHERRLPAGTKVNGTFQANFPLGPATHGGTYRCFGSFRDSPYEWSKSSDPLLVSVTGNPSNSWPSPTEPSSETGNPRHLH

[31] = target: recombinant soluble KIR2DL3 (entire extracellular domain, produced in E. coli) (human) (UniProt P43628); experiment: Biacore competition (Example 10), KIR2DL3 chip; competitor (second Ab) DF200 (self)
[32] = target: recombinant soluble KIR2DL3 (entire extracellular domain, produced in E. coli) (human) (UniProt P43628); experiment: Biacore competition, KIR2DL3 chip; competitor (second Ab) GL183
[33] = target: recombinant soluble KIR2DL1 (entire extracellular domain, produced in E. coli) (human) (UniProt P43626); experiment: Biacore, KIR2DL1 chip; direct binding (field of first Ab 1-6F5)
[34] = target: immobilized KIR2DS1 protein (human) (UniProt Q14954); experiment: Biacore, KIR2DS1 chip; direct binding (field of first Ab 1-7F9)
[35] = target: recombinant soluble KIR2DL1 (entire extracellular domain, produced in E. coli) (human) (UniProt P43626); experiment: Biacore SPR, antibody over immobilized KIR2DL1 (bivalent binding)
[36] = target: immobilized KIR2DS1 protein (human) (UniProt Q14954); experiment: Biacore, KIR2DS1 chip; first Ab 1-7F9 bound
[37] = target: recombinant soluble KIR2DL1 (entire extracellular domain, produced in E. coli) (human) (UniProt P43626); experiment: Biacore competition (Example 10), KIR2DL1 chip; competitor (second Ab) Pan2D
[38] = target: recombinant soluble KIR2DL3 (entire extracellular domain, produced in E. coli) (human) (UniProt P43628); experiment: Biacore, KIR2DL3 chip; first Ab 1-6F5 bound
[39] = target: recombinant soluble KIR2DL3 (entire extracellular domain, produced in E. coli) (human) (UniProt P43628); experiment: Biacore SPR, antibody over immobilized KIR2DL3 (bivalent binding)
[40] = target: recombinant soluble KIR2DL3 (entire extracellular domain, produced in E. coli) (human) (UniProt P43628); experiment: Biacore competition (Example 10), KIR2DL3 chip; competitor (second Ab) Pan2D
[41] = target: immobilized KIR2DS1 protein (human) (UniProt Q14954); experiment: Biacore competition, KIR2DS1 chip; competitor (second Ab) 1-4F1
[42] = target: immobilized KIR2DS1 protein (human) (UniProt Q14954); experiment: Biacore competition, KIR2DS1 chip; competitor (second Ab) 1-7F9
[43] = target: recombinant soluble KIR2DL1 (entire extracellular domain, produced in E. coli) (human) (UniProt P43626); experiment: Biacore competition, KIR2DL1 chip; competitor (second Ab) EB6
[44] = target: recombinant soluble KIR2DL3 (entire extracellular domain, produced in E. coli) (human) (UniProt P43628); experiment: Biacore competition, KIR2DL3 chip; competitor (second Ab) 1-6F5
[45] = target: T1, KIR2DS3 expressed on transfected cells (human, UniProt Q14952 22-304); experiment: flow cytometry on cells transfected with KIR2DS3 (fifth column; its head is printed KIRDLS1 a second time, the legend's order gives KIR2DS3)
T1 construct: whole, on cells
T1 sequence (Q14952 22-304): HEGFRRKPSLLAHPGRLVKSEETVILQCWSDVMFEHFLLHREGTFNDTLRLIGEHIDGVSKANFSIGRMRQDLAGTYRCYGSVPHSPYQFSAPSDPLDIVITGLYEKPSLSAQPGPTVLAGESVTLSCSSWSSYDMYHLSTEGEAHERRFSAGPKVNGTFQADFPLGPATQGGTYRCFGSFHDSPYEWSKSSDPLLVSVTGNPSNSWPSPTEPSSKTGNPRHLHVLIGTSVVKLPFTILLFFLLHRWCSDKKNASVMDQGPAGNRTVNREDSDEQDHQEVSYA
In short: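 Binding of human anti-KIR monoclonal antibodies to cells stably transfected with KIR2DS3 was measured by flow cytometry. Cells were incubated with the antibody at various concentrations (typically 0-50 μg/ml) in DMEM medium containing 2% FCS. They were then washed and stained with an APC-conjugated secondary antibody specific for human IgG, with all incubations and washes at 0-4° C. Cells were resuspended in PBS and analysed on a FACScalibur or FACScanto.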

murine monoclonal antibody EB6
% inhibition of second antibody binding [1]: 48%
% inhibition of second antibody binding [2]: 23%
% inhibition of second antibody binding [3]: 60%
% inhibition of second antibody binding [4]: 40%
% inhibition of second antibody binding [5]: 65%
RU, second antibody after first antibody [6]: 180 RU
RU, second antibody alone [7]: 260 RU
RU, second antibody after first antibody [8]: 320 RU
RU, second antibody after first antibody [9]: 200 RU
% inhibition of second antibody binding [10]: 57%
RU, second antibody alone [11]: 460 RU
RU, second antibody alone [12]: 460 RU

murine monoclonal antibody GL183
RU, second antibody after first antibody [13]: 330 RU
% inhibition of second antibody binding [14]: 75%
RU, second antibody after first antibody [15]: 570 RU
RU, second antibody after first antibody [16]: 200 RU
% inhibition of second antibody binding [17]: 18%
% inhibition of second antibody binding [18]: 76%
% inhibition of second antibody binding [19]: 40%
% inhibition of second antibody binding [20]: 8%
RU, second antibody alone [21]: 1240 RU
RU, second antibody alone [22]: 800 RU
RU, second antibody alone [23]: 620 RU

murine monoclonal antibody DF200
RU, second antibody after first antibody [13]: 210 RU
% inhibition of second antibody binding [24]: 80%
RU, second antibody alone [25]: 800 RU
% inhibition of second antibody binding [14]: 75%
% inhibition of second antibody binding [1]: 92%
% inhibition of second antibody binding [26]: 80%
RU, second antibody after first antibody [15]: 760 RU
% inhibition of second antibody binding [27]: 15%
RU, second antibody after first antibody [28]: 290 RU
% inhibition of second antibody binding [29]: 17%
% inhibition of second antibody binding [2]: 15%
RU, second antibody after first antibody [16]: 450 RU
% inhibition of second antibody binding [30]: 70%
% inhibition of second antibody binding [31]: 85%
% inhibition of second antibody binding [4]: 80%
% inhibition of second antibody binding [5]: 27%
% inhibition of second antibody binding [32]: 20%
% inhibition of second antibody binding [17]: 16%
% inhibition of second antibody binding [18]: 62%
RU, second antibody alone [33]: 350 RU
RU, second antibody alone [34]: 900 RU
Kd [35]: 10.9 nM
RU, second antibody after first antibody [36]: 1090 RU
% inhibition of second antibody binding [37]: 85%
RU, second antibody after first antibody [38]: 760 RU
RU, second antibody after first antibody [6]: 545 RU
Kd [39]: 2 nM
% inhibition of second antibody binding [19]: 75%
RU, second antibody alone [21]: 1140 RU
% inhibition of second antibody binding [40]: 50%
RU, second antibody alone [7]: 350 RU
% inhibition of second antibody binding [41]: 87%
% inhibition of second antibody binding [42]: 15%
RU, second antibody after first antibody [8]: 310 RU
RU, second antibody alone [22]: 770 RU
% inhibition of second antibody binding [43]: 90%
RU, second antibody alone [11]: 600 RU
RU, second antibody alone [23]: 790 RU
% inhibition of second antibody binding [44]: 4%

B1: murine monoclonal antibody NKVSF1 (Pan2D) (antibody, V domains shown)
VH: EVQLQQSGTVLARPGASVKMSCKASGYTFTSYWMHWMKQRPGQGLEWIGTIYPGNSDTNYNQKFKGKAKLTAVTSTNTAYMELSSLTNEDSAVYYCSRPTTATRSSAMDYWGQGTSVTVSS
VL: QIVLTQSPASMSASLGERVTMTCTASSSVSSSYLYWYQQKPGSSPKLWIYSTSNLASGVPARFSGSGSGTSYSLTISSMEAEDAATYYCHQYHRSPPTFGGGTKLEIKR
notes: Murine mAb, bought from Serotec (MCA2243)
binding result [45]: no binding (tested: 1 µg/ml)
